Results from patent US20210405060A1 (published 2021).

Assays:
[1] = molecular target: PTP1BS187C lite / C3-SLF conjugate (UniProt P18031); assay: X-ray crystal structure FKBP12-C3SLF-PTP1BS187C
[2] = molecular target: MCL1S245C lite / C3-SLF conjugate (UniProt Q07820); assay: X-ray crystal structure MCL1S245C/C3SLF/FKBP52, 3.0 Å
[3] = molecular target: T1, FKBP12-Compound 2 binary complex (UniProt P62942 1-108); assay: ITC, 298 K; FKBP12 + Compound 2 in cell, CEP25011.4 in syringe
T1 construct: FKBP12 (10 µM) pre-incubated with 20 µM of the non-covalent ligand Compound 2 in the ITC cell
T1 sequence (P62942 whole entry, one chain of several): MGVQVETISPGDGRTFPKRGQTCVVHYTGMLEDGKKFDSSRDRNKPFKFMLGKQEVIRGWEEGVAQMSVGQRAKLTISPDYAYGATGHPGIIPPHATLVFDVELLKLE
Procedure: (§1) CEP250 protein stocks are diluted to 50 μM in assay buffer and supplemented with 20 μM compound (1% DMSO final) before being filled into the injection syringe. A control experiment in the absence of compound is also run to determine the heat associated with operational artifacts and the dilution of titrant as it is injected from the syringe into the reaction cell.
(§2) Data Fitting: Data were fitted with the Origin ITC200 software according to the following procedure: [0473] 1) Read raw data [0474] 2) In “mRawITC”: adjust integration peaks and baseline, integrate all peaks [0475] 3) In “Delta H”—data control: remove bad data (injection #1 and other artifacts), subtract straight line (background subtraction) [0476] 4) In “Delta H”—model fitting: select one set of sites model, perform fitting with Levenberg-Marquardt algorithm until Chi Square is not reduced further, finish with “done” (parameters N, Kₐ and ΔH are calculated based on fitting)

[4] = molecular target: T2, 12xHIS tagged FKBP12 / Compound 1 binary complex (UniProt P62942 1-108, limits assumed); assay: SPR (Biacore X100), 12xHIS FKBP12 on NTA chip with 1 µM Compound 1, CEP250 as analyte, 1:1 model, 25 °C
T2 construct: Immobilized on an NTA chip, with 1 µM Compound 1 in all buffers; also called immobilized FKBP12-Compound 1 binary complex; not shown: 12xHIS tag
T2 sequence (P62942 whole entry, one chain of several): as above
Procedure: Experimental Protocol: Experiments are performed at 25° C. […] The second flow cell is not activated as a reference for non-specific interaction of the analyte to the sensor chip. […] The surface is regenerated between analyte injections with 350 mM EDTA.
Data Fitting: The BiaEvaluation software program is used for data fitting. All data is reference subtracted against both the reference flow cell and a buffer injection. For kinetic analyses, data is locally fit to a 1:1 interaction model.

[5] = molecular target: T3, FKBP12-Compound 1 binary complex (UniProt P62942 1-108); assay: ITC, 298 K; FKBP12 + Compound 1b in cell, CEP25011.4 in syringe
T3 construct: FKBP12 (10 µM) pre-incubated with 20 µM of the non-covalent ligand Compound 1 in the ITC cell
T3 sequence (P62942 whole entry, one chain of several): as above
Procedure: as §1, §2

Sequence of MCL1S245C lite / C3-SLF conjugate (Q07820 other isoform, or with tags, fused parts or gaps with the stated changes limits assumed): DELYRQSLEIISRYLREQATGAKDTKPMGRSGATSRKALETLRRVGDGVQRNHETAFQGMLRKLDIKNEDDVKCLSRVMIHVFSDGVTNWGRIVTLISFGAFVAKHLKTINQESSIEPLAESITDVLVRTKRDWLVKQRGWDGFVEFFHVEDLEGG
Sequence of PTP1BS187C lite / C3-SLF conjugate (P18031 other isoform, or with tags, fused parts or gaps limits assumed, change not shown): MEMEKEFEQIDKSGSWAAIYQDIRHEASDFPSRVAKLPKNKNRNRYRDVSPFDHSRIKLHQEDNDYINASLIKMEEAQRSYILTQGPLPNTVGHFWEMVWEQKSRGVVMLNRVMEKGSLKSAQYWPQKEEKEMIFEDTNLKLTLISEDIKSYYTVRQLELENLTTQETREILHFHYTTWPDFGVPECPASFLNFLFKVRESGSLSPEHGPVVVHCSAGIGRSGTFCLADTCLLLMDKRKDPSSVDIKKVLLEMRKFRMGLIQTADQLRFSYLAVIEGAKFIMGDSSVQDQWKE

“FKBP12 (in-house) (from UniProt P62942 1-108) (enzyme)” showed a buried surface area of PTP1BS187C [1] of 427 Å^2 and a total buried surface area of the complex [1] of 1040 Å^2.

B1: FKBP52 (in-house, residues 1-140) (enzyme, UniProt Q02790 1-140, looked up)
chain: MTAEEMKATESGAQSAPLPMEGVDISPKQDEGVLKVIKREGTGTEMPMIGDRVFVHYTGWLLDGTKFDSSLDRKDKFSFDLGKGEVIKAWDIAIATMKVGEVCHITCKPEYAYGSAGSPPKIPPNATLVFEVELFEFKGE
Work on B1 yielded a buried surface area contributed by FKBP52 [2] of 804 Å^2, a share of buried surface area contributed by FKBP52 [2] of 60% and a total buried surface area of the complex [2] of 1410 Å^2.

B2: CEP25011.4 (residues 2134-2231) (other, UniProt Q9BV73 2134-2231, looked up)
chain: MEEQSLKLDSLEPRLQRELERLQAALRQTEAREIEWREKAQDLALSLAQTKASVSSLQEVAMFLQASVLERDSEQQRLQDELELTRRALEKERLHSPG
notes: range 2134-2231
With B2 the Kd [3] was 80 nM, the Kd [4] was 5.4 nM and the Kd [5] was 70 nM.
